The data set can be described thus: label from the status in PepcDB records.

Drawing on a protein production outcome set (Wang et al. 2014), this text covers protein production for 17 sequences.

Turning to “MLEKIFNSLCSLVPKRYNMKEETNIVGIYNEHYLLSEKSNLVGALKLEGISYLSLDDKEIAQKFNERILALNEIVDGVHFKIVVKRRKIFMHHEYTQEEISNPFALEVINLWEQGVEDVYQNFYYLIFETKNDSIKGYLERFKKKITTNELENIQENNRQDEVKYQENYFIGFDNFNLLDKSKILYSIINNVKNMLSGLFVEKIDANSLLNFYAEYINGVPSEYTFARGRLHDGMINSDVHFKKDFFTHIHNGKEIFKRFISIKTYDIDKIVSTALSSVLHLSLEFDVILNIDNIPKAKAEKRIETKRKRANKSIRVEIDELNDMIKTDRVLMQEISLNILVHAKTKTDLDSACIEITNLLKQKGIVSTQESIGMLPMFFSFFPNRNRLNFRKRLLSSQNIASLIILEKQNCGFSRNSWGDRHLTIFRNQDKSPYLFNFHAYEAKRKNDMVSGHTIIFGGTGAGKTTLIEFLITNCFKYEDLSILALDRNNGMRVMTEFLDGQYNDSNDFYINPFSLKDTSANCTFLVSWLAFMLNIDEDTKDEKEKKTLSALSKTIRVCYNNITKQGGAIFKLRDFKDTLEIDYLDSKDILEKESSKDLYKHSTDCLDFAKKLSVIDMDALSSSKKDFNLAVLYLFYKVMNRAKLENKPFYIFIDEAKSVIENPIMLAKIKDTLAQARKLNGVLTLAFQDINQLDGVEGAKSIIENAAQVILYPTNNFEKLESYGILLSPIEKSFLNKTPLNARQVLVKNLLTQSSVFLEINLEKLNSTSKKFLRAYNSSASSVFELETLKKDNPKDYKEIYLTKE”, the protein production result was “failed”.
The same measure for “MLEKLLSAIKQKVSNYFLGVLPKSYSMSEENNILGLYDEHFLLTKNENLVGILRLEGVSYTHLSTEQLQDLFTERQMALDSLEKVVARLVVKRRKIDHQQNIQSDSQYLQAILNQFENKEVYENQYFLVLESTHSLHGVLEHKKKSLMHANRENFKDILSYKAHFLQETLKSLEIQLKNYAPKLLSSKEVLNFYAEYINGFDLPLKPLVGGYLSDSYIASSITFEKDYFIQESFNQKTYNRLIGIKAYESERITSIAIGALLYQETPLDIIFSIEPMSVHKTLSFLKERAKFSMSNLVKNELLEYQELVKTKRLSMQKFALNILIKAPSLENLDAQTSLVLGLLFKENLVGVIETFGLKGGYFSFFPERIHLNHRLRFLTSKALACLMVFERQNLGFKANSWGNSPLSVFKNLDYSPFLFNFHNQEVSHKNAKEIARVNGHTLIIGATGSGKSTLISFLMMSALKYQNMRLLAFDRMQGLYSFTKFFKGHYHDGQSFSINPFCLEPNLQNLEFLQSFFLSMFDLAPSRDKEALEDMNAISSAIKSLYETLYPKAFSLLDFKETLKRTSSNQLGLSLEPYLNNPLFNALNDAFNSNAFLNVINLDTITQNPKDLGLLAYYLFYKILEESRKNDSGFLVFLDEFKSYVENDLLNTKINALITQARKANGVVVLALQDIYQLSGVKNAHSFLSNMGTLILYPQKNARELKHNFNVPLSETEISFLENTPLYARQVLVKNLGNGSSNMIDVSLESLGRYLKIFNSDSSHVSKVKALQKDYPTEWREKLLRSLEHHHHHH”: “failed”; for “MLEKNKPENHATDKHGLLSAPIPETLRKMTVPMTMGMIAILMFNLVDTFFISLLGTHALAAISYTFPVTFAVNCITMGIGMGLSTNIGRLLGQGHAPQAARFTTHGLLLAVLLVAIASSIGFATIAPLFRFLGATDDLIPLIEQYMQVWYLTIPLLVIPMAGNSAIRATGDTKTPAKIMMLAGLINGMLDPLLIFGYGPFPELGIQGAAIASAFSWLGALCGSFYVLVKREKLLAQPQWASLKQDWQQTLKIGTPAALSNAMNPLSGAILMMLLSSHGTAAVAAYGAAQRIESILILVLMSLTSALTPFMAQNLGAKNPQRAFSGLFLSMRFAVVFQGFIFLMMVPLSIPLAALFSQEETVKNLLWHYLLVVPFSYGFQGIVMMLVSGLNAMHKPLRAFQWSFMRLFVFTLPAAWVGSQVYSIEGLFIGIALGNTLGGLLGYMFALRERKLTLIEQNSAS”: “failed”; for “MLELFLKSFLTLFVVMDPVGLVPVFVALAGDRPHRTQVLIARKAVLVAGGLLTFFYFFGRELLGHLGISLEALRIAGGVLLFRIATEMVFAHHERETEEERDEALSRADISVFPLAIPLIAGPGALASVLVLGAEAKGVPYGFAVVLFTAYLVLFLAYLFLRGATAVRRALGRTGVNVVTRVLGLLLAALAVQYVADGVRGLL”: “failed”.
The same measure for “MLETLMYGAISALVFGTVLPLLYRSKNIRKASSGLSLLSSILLLGFAGIILYTRTEPVFPVTGFLPGAGFTLSADRLAAGFILLIGAVVPGVSIYSVEYVEHAKSEARKSLQASLTNLFILAMLMVILAGNMVSFLVFWEIMSLSSLLLVLHDYSSEENKKAGFFYFVMTNISTAFLFVGFISLFRLTGSADFGPLEYPAADLALPFIFLFIGFGVKAGLVPFHKWLPYAHPAAPSSVSALMSGVMLKVAVYGFLRFLLSVSAPELWWGVLILTAGSISALFGVIYALKENDIKRMLAYSSIENIGIIFTGIGLYAVFKVEGLESLALLSLVGACFHAFNHAVFKSLLFLCAGSVVHATGTRKIEAFGGLVKSMPVTSALFLIGSVSIAAMPPTNGFAGELLLYQAFFQSFAVTDPLLNIFLIIALSSFALTGALAAALFVKLFGITCLAIPRSEKSRLAEEVQKPMLVGPAVPAAFCILGGLFSKQLLSLAGWKIDFPDLLLLGILLGLIYTALFVIIRSKETGPARISETWGCGIPALAPYMEYSSAGFSEPLVMIFKSIYRTKIVNRPEYFDEKESLFKNGKVEIRLLRFFEEYLYIPPARAIDIFSKYVSKLQNGKLDSYVLYAFLAVIVLIIATGGFV”: “failed”.
The value for “MLEVHRTHRAKILNYSQVEDSLNRHGWSASKLWNVANYHSRQVWEETREIPGHEELKNELKGHDKYKGLHSQSSQRVLEELAEAFNSWYSSDDERDNPPGYRKQNYYDQQGRRVHEEHPLSTVTWKQNGIRHDTKNNRVRLSKGANHKEHPKAWEYILVEYETRPGVEVENLQQVRAVYDQTKERWELHLVCKEEIETPDAPGTETAGIDLGISNFAAVAYSTEDADLYPGNRLKQDGYYFPKEIANCDDSSGDRATRLHHKWSERRTHFFHSLAKHIVEKCIERSVGRINVGDLEGIREDENAKSKNWGRHGNLDLHGWAFDRFTSILEYKAKVEGIEVMEVSERDTSKTCCVCGREDDSQRVERGLYVCESCDAAFNADVNGAENIRLDIDEESNSESTGQLSGDRSTGWLAQPGVYLYDLSCGFQPQREVVDSKP” was “failed”; that for “MLFSIQTCPCQINPALNAVSTPLLYQDCCQPYHDGLYNQEVEDSDAIRADTAEHLMRTRYSAFVLVKPEYIVKTTLPAQQDLLDIKAIENWAKETDWAGLEVVAHTPKLSKRHAQVEFKAYFKTPDGLQAHHELSTFVKIKNKANSDASWYFLDPTVSMSVTQKQPCICGSGEKFKRCCGMYI” was “not failed”.
In the case of “MLFSIRNFNQGVIMAGWFELSKSSDNQFRFVLKAGNGETILTSELYTSKASAEKGIASVRSNSPQEERYEKKTASNGKFYFNLKAANHQIIGSSQMYATAQSRETGIASVKANGTSQTVKDNT”, the protein production result is listed as “failed”.
As to “MLFSLKYLGMTLVEQPKGEELSAAAIKRIVATAKASGKKLQKVTLKVSPRGIILTDNLTNQLIENVSIYRISYCTADKMHDKVFAYIAQSQHNQSLECHAFLCTKRKMAQAVTLTVAQAFKVAFEFWQVSKEEKEKRDKASQEGGDVLGARQDCTPPLKSLVATGNLLDLEETAKAPLSTVSANTTNMDEVPRPQALSGSSVVWELDDGLDEAFSRLAQSRTNPQVLDTGLTAQDMHYAQCLSPVDWDKPDSSGTEQDDLFSF”, the protein production entry is reported as “failed”.
In the case of “MLFTPEGTPMARRLEDARILMYSHDTFGLGHLRRCRAIAHALVEDYRGLNILIISGATIAGAFDYRARVDFVKIPSVIKLRNGEYTSLASHIDLHETLKMRESSIRHTAETFQPDIFIVDKEPMGLKGEVEDTLAYLKARGTVLVLGLREIMDAPHLLDAEWKRNGIMQKIDQYYDSVWVYGPPDFYDPLIGLDVPVSLRRKMDFVGFLQRSVSKGKTSIHARKDNYLLVTTGGGGDGSDLVHDVMNAYEADPTLTQKALVVLGPYMPAAERAKLVQKGEAIPYIEVIEFDNHMEELIDGATGVVAMGGYNTYCEILSFDKPALIVPRVKPREEQLLRAKRASELGLVDMLLPEQSVDPAIMAAALKRLPSRLPPSKSGSNMHLEGLDHISQTVGRWLDGRATHLAVVGAE”, the protein production entry is on record as “failed”.
In the case of “MLFWGSAFNAMSYVIQYMPPLSAAAERFTIASLGLFILFAAIGKLRWAALRQNLAIYLIIGIIGIAGFNLGCFYGLQTTSAVNGALIMATTPLITLLLTILLDGEKLTLNKSIGVVFGLSGVLFVISHGHISTLLHLKIAIGDLFILLGGVSFCLANMLSRRYVKNATPLETTTFSMMSGALTLIILSVIFEHPSQAIAMAPITAHLAMGYVIICSTMIAYLFWFNGIQKLGAGRASIFFNFVPVFSMLVALLAGQSLNIWQLIGTALVMLGVMSSGGFIQIKRPTLIAKPCTK”, the protein production result is “failed”.
The same measure for “MLGAVARGGWVYEVHAAGAGTDLYRVSLLEGYQEQRPLSAAESAALPALLPLVHAESALSEMGYFHGVMGSTADTALAYDRFVGHTRWFGGEDGTRLLNRIRTRLQRPGPVRFWNGSSPPTGEDRRAALVP”: “failed”; for “MLGFKDIPLTKKVIHIINDIERPFMIRWSNSHDVQQIHDWLQEEEALEVHGNFLCNWNLTRQCHEEGRLLVLIDEIKGIPVAYQWGQLLSSGILQVRNGWRGNGLGRLVVEHCVELALQQDEMVLQVECKPSSSIPFWEAMGFTIVEGEFGKNAKGFRVLSKNLALPPGGRPILATISSFPEERNWQDNVPAIASYHLNAIVADDGKVYLAERASFPKCFRRMSRDPVIEIIVEGKLVYRDKAKYQGAQDHGVKWCRNGFYIDVVTI”: “failed”; for “MLGHNKISVIIPAYNEERRIGNVLKGIPDFVDEVIVVDDGSSDGTSKVAMELGATVIRLNKNSGKGAAMREGLKISTGDIIVFMDADGQHNPKEIYRLVKPIVEGRADLVIGRRIITRGKRPMSRKISNFITTRLITLKTRKKILDTQSGFRAIRREFVPVIESDRYEVETEVLIKAIKKGARILEVPISTRYDVETGHFKMIDIFRFLFALIKYLEHHHHHH”: “failed”.
The same measure for “MLHFAHIFQNKVHTMNITKPFPLPTGYFGIPLGLAALSLAWFHLENLFPAARMVSDVLGIVASAVWILFILMYAYKLRYYFEEVRAEYHSPVRFSFIALIPITTMLVGDILYRWNPLIAEVLIWIGTIGQLLFSTLRVSELWQGGVFEQKSTHPSFYLPAVAANFTSASSLALLGYHDLGYLFFGAGMIAWIIFEPVLLQHLRISSLEPQFRATMGIVLAPAFVCVSAYLSINHGEVDTLAKILWGYGFLQLFFLLRLFPWIVEKGLNIGLWAFSFGLASMANSATAFYHGNVLQGVSIFAFVFSNVMIGLLVLMTIYKLTKGQFFLK”: “not failed”; for “MLHGLKQRLEALHHPGELEGSPQNLHQLLGVSIEQSVPQAQTMLVERHLASLTGDEARLLAALSDGSAFALLTLYSGSRFSRGEVLYRYSNAGRAAGIQCNDFIALYLNHLFAQGLVIASDFTESLRTDYELCEGDSDFRKAQAELQIHLPKLSIRRETLRISPLGRQLWTLMTTPADIEE”: “not failed”; for “MLHIDDAMIEDAVTPQAAQEVLHAAFLDFGRGSAAMQRRVRTEAGGVKLSTLGAVIPGQGVAGAKVYTTIKGQFQFVILLFSAADGRPLATCDAGTLTRKRTAACTVLAAGALARLRSSVLGLFGAGTQGVEHAAQLSARFALEAILVHDPHASPEVVERIGRRCGVPARMAAPADIAAQADIVVTATRSATPLFAGQALRAGAFVGAIGSSLPHTRELDDEVLRRARAVVVEWREQTLSEAGDLVLAAPDTGLDAKVVELADVLAGRATARQADEDIVIYKSVGVGLEDVALAGYAYRRLAAQRGWPAP”: “failed”.
